Measured values from PMC8385704.

The substances below were run against ACE2-Fc fusion protein (extracellular domain of human ACE2 and the Fc region of human IgG1) (human) (UniProt Q9BYF1) (assay: ELISA).

Substance	EC50 [nM]
recombinant S1-subunit or RBD of SARS-CoV-2 variant B.1.1.7 (domain or fragment)	0.8
recombinant S1-subunit or RBD of SARS-CoV-2 variant B.1.351 (domain or fragment)	6.9
recombinant S1-subunit or RBD of SARS-CoV-2 variant B.1.617.1 (domain or fragment)	51.3
recombinant S1-subunit or RBD of SARS-CoV-2 variant P.1 (domain or fragment)	14.9
recombinant S1-subunit or RBD of SARS-CoV-2-D614G (domain or fragment)	2.6
